The values below come from US11608367B2, “Peptides for angiogenic therapy” (The Regents of the University of California, priority 2018, dated 2023).

In test [1] the test system is cancer, cardiac and neuronal cell lines. Nature of the test: Categorisation of active ADPs as pro-/anti-apoptotic (Example 15). The note with it: criteria of Example 15.
Test [2] is described as follows: Effectiveness of ADPs (Example 1, Table 6; cell death assays of FIGS. 10-13). The class given is cell-based. The note with it: ADPs with N-terminal tumor penetrating peptide and C-terminal fluorescent tag; graded in words. An excerpt:
FIGS. 10A-C show the sequences mapped, peptide blots, imaging to show expression and cell death assays for these three peptides. A) PPA-1 (PEPTIDE23) (SEQ ID NO:23), B) PPA4 (PEPTIDE19) (SEQ ID NO:19), C) PPA10 (PEPTIDE16 including FF at C-terminus) (SEQ ID NO:16).
FIGS. 11A-B show the sequences mapped, peptide blots, imaging to show expression and cell death assays for these HSP-70 peptides. A) PHA4 (PEPTIDE5) (SEQ ID NO:5), B) PHA5 (PEPTIDE13 plus C-terminal L) (SEQ IDS NO: 13).
FIGS. 12A-C show the sequences mapped, peptide blots, imaging to show expression and cell death assays for these p65 (RELA) peptides. A) PRA1 (PEPTIDE14) (SEQ ID NO:14), B) PRA8 (PEPTIDE8) (SEQ ID NO:8), C) PRA9 (SEQ ID Nos:33 and 37-45).
FIGS. 13A-D show the sequences mapped, peptide blots, imaging to show expression and cell death assays for these HSP-70 peptides. A) PAA1-1 (PEPTIDE11) (SEQ ID NO:11), B) PPA1-3 (PEPTIDE15) (SEQ ID NO:15), C) PAR1 (PEPTIDE19), D) Paint 1 (PEPTIDE7) (SEQ ID NO:7).
ADPs were first identified using Peptide SPOT analysis. Peptides were identified from AKIP1. PKAc, HSP-70 and p65 sequences. The identified ADPs were attached at the N-terminus to tumor penetrating peptide based on the CENDR rule (FIG. 9). A fluorescent tag was attached to the C-terminus for ease of visualization. […]

Residue numbers refer to the chain shown, from its start.

B1: KSQVISNAKNTVQGFKRFHGRAFSDPFVEAEKSNLAYDIVQWPTGLTGIKVTYMEEERNFTTEQVTAMLLSKLKETAESVLKKPVV (peptide)
chain: KSQVISNAKNTVQGFKRFHGRAFSDPFVEAEKSNLAYDIVQWPTGLTGIKVTYMEEERNFTTEQVTAMLLSKLKETAESVLKKPVV
On to B1, for which, in test [1], the “Pro-apoptotic (anti-angiogenic) category” value is “Pro-apoptotic (anti-angiogenic)”.

B2: KSQVISNAKNTVQGFKRFHGRAFSDPFVEAEKSNLAYDIVQWPTGLTGIKVTYMEEERNFTIEQVTAMLLSKLKETAESVLKKPVV (peptide)
chain: B1 chain with T62I
Regarding B2, in test [2], the Effectiveness result is on record as “Moderate”.
